How the values were obtained:
E. coli RNAP β subunit = biological target: T1, E. coli RNAP β subunit (E. coli, UniProt P0A8V2 1-1342); test: cryo-EM structure; EC-RapA: 4 μM RNAP core enzyme with DNA/RNA scaffold, then 5 μM RapA, 22 °C, storage buffer (10 mM Hepes pH 7.5, 50 mM NaCl, 0.1 mM EDTA, 5 mM DTT); gel filtration; 1 mM AMPPNP and CMPCPP; BS3 cross-linked; 3.3 Å; settings: both partners purified
T1 construct: RNA polymerase β subunit, E. coli; Stood in the assay as a subunit of the core enzyme m2, not alone; source: E. coli BL21(DE3), pVS10, purified as part of the RNAP core enzyme

E. coli RNAP β′ subunit = biological target: T2, E. coli RNAP β′ subunit (E. coli, UniProt P0A8T7 1-1407); test: as above; settings: both partners purified
T2 construct: RNA polymerase β′ subunit, E. coli; Stood in the assay as a subunit of the core enzyme m2, not alone; source: E. coli BL21(DE3), pVS10, purified as part of the RNAP core enzyme
T2 sequence (P0A8T7 whole entry): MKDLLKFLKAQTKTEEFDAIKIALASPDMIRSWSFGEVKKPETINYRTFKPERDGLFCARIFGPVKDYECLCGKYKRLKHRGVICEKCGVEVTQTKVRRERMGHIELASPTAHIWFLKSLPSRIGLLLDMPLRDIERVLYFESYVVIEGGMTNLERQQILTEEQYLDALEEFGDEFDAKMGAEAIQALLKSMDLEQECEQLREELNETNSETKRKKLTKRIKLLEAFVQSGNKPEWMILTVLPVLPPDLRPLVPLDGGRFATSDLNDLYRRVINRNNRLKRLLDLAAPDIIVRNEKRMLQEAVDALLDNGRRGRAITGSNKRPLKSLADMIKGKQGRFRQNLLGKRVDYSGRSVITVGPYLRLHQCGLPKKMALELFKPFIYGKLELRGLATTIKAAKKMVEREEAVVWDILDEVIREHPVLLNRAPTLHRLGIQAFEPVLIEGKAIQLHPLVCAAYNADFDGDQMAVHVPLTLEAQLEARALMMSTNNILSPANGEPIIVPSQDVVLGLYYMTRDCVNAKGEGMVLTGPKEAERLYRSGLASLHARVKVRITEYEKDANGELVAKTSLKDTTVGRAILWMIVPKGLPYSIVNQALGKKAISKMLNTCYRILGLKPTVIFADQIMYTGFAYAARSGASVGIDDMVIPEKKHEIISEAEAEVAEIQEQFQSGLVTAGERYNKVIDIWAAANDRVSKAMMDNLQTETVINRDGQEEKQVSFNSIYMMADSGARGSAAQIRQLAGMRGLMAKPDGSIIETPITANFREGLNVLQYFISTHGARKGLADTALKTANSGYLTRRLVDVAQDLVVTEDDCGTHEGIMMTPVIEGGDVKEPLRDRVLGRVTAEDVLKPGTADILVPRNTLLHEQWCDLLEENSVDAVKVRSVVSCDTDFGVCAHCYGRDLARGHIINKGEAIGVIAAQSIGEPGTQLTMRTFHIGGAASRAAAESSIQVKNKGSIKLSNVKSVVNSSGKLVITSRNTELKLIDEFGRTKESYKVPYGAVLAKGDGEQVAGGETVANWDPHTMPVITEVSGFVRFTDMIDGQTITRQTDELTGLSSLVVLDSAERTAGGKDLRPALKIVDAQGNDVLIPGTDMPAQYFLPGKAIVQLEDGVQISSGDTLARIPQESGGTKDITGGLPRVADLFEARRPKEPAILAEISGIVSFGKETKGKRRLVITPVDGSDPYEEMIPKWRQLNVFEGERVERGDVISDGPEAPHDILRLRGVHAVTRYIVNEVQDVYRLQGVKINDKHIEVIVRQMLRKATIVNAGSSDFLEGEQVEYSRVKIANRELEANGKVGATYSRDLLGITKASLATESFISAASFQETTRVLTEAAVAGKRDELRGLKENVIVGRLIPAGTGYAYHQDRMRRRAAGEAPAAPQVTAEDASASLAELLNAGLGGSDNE

T1 sequence (P0A8V2 whole entry): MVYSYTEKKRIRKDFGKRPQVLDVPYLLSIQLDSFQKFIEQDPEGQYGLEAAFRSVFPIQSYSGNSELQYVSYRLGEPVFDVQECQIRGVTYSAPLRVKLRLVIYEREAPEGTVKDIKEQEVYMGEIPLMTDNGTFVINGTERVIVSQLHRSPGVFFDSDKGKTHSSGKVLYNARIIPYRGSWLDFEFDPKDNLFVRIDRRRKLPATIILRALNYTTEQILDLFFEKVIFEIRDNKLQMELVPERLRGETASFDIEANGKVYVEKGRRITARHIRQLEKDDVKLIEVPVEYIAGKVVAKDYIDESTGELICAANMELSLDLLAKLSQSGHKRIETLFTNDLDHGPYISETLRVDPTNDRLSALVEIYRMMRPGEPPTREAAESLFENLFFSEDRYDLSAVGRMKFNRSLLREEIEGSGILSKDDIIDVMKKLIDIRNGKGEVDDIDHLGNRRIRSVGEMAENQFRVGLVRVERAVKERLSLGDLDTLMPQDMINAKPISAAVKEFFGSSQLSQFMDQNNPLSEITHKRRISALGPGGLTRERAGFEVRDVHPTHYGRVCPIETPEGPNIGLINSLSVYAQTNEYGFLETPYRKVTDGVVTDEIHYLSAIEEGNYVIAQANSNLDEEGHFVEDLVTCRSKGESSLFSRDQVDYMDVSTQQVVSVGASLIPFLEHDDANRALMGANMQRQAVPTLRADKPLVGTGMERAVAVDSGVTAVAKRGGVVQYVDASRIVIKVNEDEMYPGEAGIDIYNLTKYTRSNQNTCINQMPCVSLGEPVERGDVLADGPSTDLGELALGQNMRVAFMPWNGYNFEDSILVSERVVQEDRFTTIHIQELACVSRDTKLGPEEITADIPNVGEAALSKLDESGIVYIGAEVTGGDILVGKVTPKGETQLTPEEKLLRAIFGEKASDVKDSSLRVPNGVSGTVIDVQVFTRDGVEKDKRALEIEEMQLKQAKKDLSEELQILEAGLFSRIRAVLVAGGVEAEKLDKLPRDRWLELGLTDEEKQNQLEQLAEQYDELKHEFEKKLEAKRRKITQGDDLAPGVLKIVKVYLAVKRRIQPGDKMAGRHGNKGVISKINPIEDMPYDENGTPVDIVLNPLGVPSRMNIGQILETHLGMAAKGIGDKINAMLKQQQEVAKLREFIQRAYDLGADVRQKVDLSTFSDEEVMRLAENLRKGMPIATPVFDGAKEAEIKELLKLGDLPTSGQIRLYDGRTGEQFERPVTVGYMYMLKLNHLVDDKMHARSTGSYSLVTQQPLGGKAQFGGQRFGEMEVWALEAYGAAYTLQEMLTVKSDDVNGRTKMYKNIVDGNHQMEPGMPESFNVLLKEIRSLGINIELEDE

B1: E. coli RapA protein (enzyme, UniProt P60240 1-968, looked up)
chain: MPFTLGQRWISDTESELGLGTVVAVDARTVTLLFPSTGENRLYARSDSPVTRVMFNPGDTITSHDGWQMQVEEVKEENGLLTYIGTRLDTEESGVALREVFLDSKLVFSKPQDRLFAGQIDRMDRFALRYRARKYSSEQFRMPYSGLRGQRTSLIPHQLNIAHDVGRRHAPRVLLADEVGLGKTIEAGMILHQQLLSGAAERVLIIVPETLQHQWLVEMLRRFNLRFALFDDERYAEAQHDAYNPFDTEQLVICSLDFARRSKQRLEHLCEAEWDLLVVDEAHHLVWSEDAPSREYQAIEQLAEHVPGVLLLTATPEQLGMESHFARLRLLDPNRFHDFAQFVEEQKNYRPVADAVAMLLAGNKLSNDELNMLGEMIGEQDIEPLLQAANSDSEDAQSARQELVSMLMDRHGTSRVLFRNTRNGVKGFPKRELHTIKLPLPTQYQTAIKVSGIMGARKSAEDRARDMLYPERIYQEFEGDNATWWNFDPRVEWLMGYLTSHRSQKVLVICAKAATALQLEQVLREREGIRAAVFHEGMSIIERDRAAAWFAEEDTGAQVLLCSEIGSEGRNFQFASHMVMFDLPFNPDLLEQRIGRLDRIGQAHDIQIHVPYLEKTAQSVLVRWYHEGLDAFEHTCPTGRTIYDSVYNDLINYLASPDQTEGFDDLIKNCREQHEALKAQLEQGRDRLLEIHSNGGEKAQALAESIEEQDDDTNLIAFAMNLFDIIGINQDDRGDNMIVLTPSDHMLVPDFPGLSEDGITITFDREVALAREDAQFITWEHPLIRNGLDLILSGDTGSSTISLLKNKALPVGTLLVELIYVVEAQAPKQLQLNRFLPPTPVRMLLDKNGNNLAAQVEFETFNRQLNAVNRHTGSKLVNAVQQDVHAILQLGEAQIEKSARALIDAARNEADEKLSAELSRLEALRAVNPNIRDDELTAIESNRQQVMESLDQAGWRLDALRLIVVTHQ
notes: RapA, Swi2/Snf2 family ATPase of E. coli, full-length; NTD is residues 1-109; In the EC-RapA sample the complex was cross-linked with BS3; also called τ factor
E. coli RNAP β subunit
  binding result: binds
E. coli RNAP β′ subunit
  binding result: binds
